Key:
[1] = test system: SSX2+/HLA-A2+ target cells; test: Proliferation ([3H]-thymidine) on co-culture with tumor cells; assay type: cell-based; details: 1300 mel, 624 mel, 888 mel, SK mel 37 or COS-A2-SSX-2 cells; FIGS. 9A-9E
Text: In another experiment, PBLs transduced as described in this example were co-cultured with 1300 mel cells, 624 mel cells, 888 mel cells, SK mel 37 cells, or COS-A2-SSX-2 cells.

COS-A2 SSX2 = test: IFN-γ release, co-culture with COS-A2 SSX2; assay type: cell-based; details: co-cultured with COS-A2 SSX2
Text: (§1) SSX-2 TCR-transduced PBLs were co-cultured with various tumor cell lines. […] FIGS. 4A and 4B, FIG. 11, and Tables 3 and 4 show additional results of PBLs from human donors that were transduced with the SSX-2 TCR of Example 2 when these PBLs were co-cultured with various tumor cells. PBLs that were untransduced (UT) or transduced with a vector comprising SEQ ID NO: 27 (SSX-2 TCR), SEQ ID NO: 29 (codon-optimized SSX-2 TCR), or SEQ ID NO: 30 (codon-optimized SSX-2 TCR including mouse constant region) were co-cultured with various tumor cell lines. Tables 5 and 6 show the resulting interferon-γ levels (pg/ml) measured with respect to PBL from two different donors.

624 mel = test: IFN-γ release, co-culture with 624 melanoma; assay type: cell-based; details: co-cultured with 624 (Melanoma)
Text: as §1

COS-A2-SSX2 cells = test: CD137 (4-1BB) upregulation after co-culture with COS-A2-SSX2 cells; assay type: cell-based; details: FACS after co-culture with COS-A2-SSX2 cells
HEPG2 = test: IFN-γ release, co-culture with HEPG2; assay type: cell-based; details: co-cultured with HEPG2
Text: (§2) SSX-2 TCR-transduced PBLs were co-cultured with various tumor cell lines. […] FIGS. 4A and 4B, FIG. 11, and Tables 3 and 4 show additional results of PBLs from human donors that were transduced with the SSX-2 TCR of Example 2 when these PBLs were co-cultured with various tumor cells.

938-A2 mel = test: IFN-γ release, co-culture with 938-A2 melanoma; assay type: cell-based; details: Table 3; co-cultured with 938-A2 (Melanoma)
Text: as §1

[2] = target: T1, SSX-2: 41-49 (KASEKIFYV) peptide (Homo sapiens, UniProt Q16385); test: IFN-γ release, co-culture with T2 cells pulsed with SSX-2: 41-49 peptide; assay type: cell-based
T1 construct: host or cells: T2 cells (peptide-pulsed)
Text: SSX-2 TCR-transduced PBLs were co-cultured with T2 cells from two human donors, where the T2 cells were pulsed with varying concentrations of the SSX-2: 41-49 (KASEKIFYV) peptide. FIGS. 1A and 1B show the resulting interferon-γ levels (pg/ml) measured. […] The differences between FIGS. 1A and 1B may be due to donor variability.
PBLs that were untransduced (UT) or transduced with a vector comprising SEQ ID NO: 27 (SSX-2 TCR), SEQ ID NO: 29 (codon-optimized SSX-2 TCR), or SEQ ID NO: 30 (codon-optimized SSX-2 TCR including mouse constant region) were co-cultured with T2 cells that were pulsed with an SSX-2 were pulsed with varying concentrations of the SSX-2: 41-49 (KASEKIFYV) (SEQ ID NO: 1) peptide.

MCF7 = test: IFN-γ release, co-culture with MCF7; assay type: cell-based; details: co-cultured with MCF7
Text: as §2

T331A mel = test: IFN-γ release, co-culture with T331A; assay type: cell-based; details: for IFN-γ: co-cultured with T331A; for interferon-γ levels: co-cultured with T331A mel
Text: as §1

OVCAR3 = test: IFN-γ release, co-culture with OVCAR3; assay type: cell-based; details: co-cultured with OVCAR3
Text: as §2

SKOV3 Ovarian = test: IFN-γ release, co-culture with SKOV3 ovarian; assay type: cell-based; details: co-cultured with SKOV3 (Ovarian)
Text: as §1

T567A = test: IFN-γ release, co-culture with T567A melanoma; assay type: cell-based; details: co-cultured with T567A (Melanoma)
Text: as §2

938 mel = test: IFN-γ release, co-culture with 938; assay type: cell-based; details: for IFN-γ: co-cultured with 938; for interferon-γ levels: co-cultured with 938 mel
Text: as §1

[3] = test system: melanoma (624, and 1300) and glioblastoma cell lines (U251); test: IFN-γ release, co-culture with various tumor cell lines (FIG. 3); assay type: cell-based
Text: SSX-2 TCR-transduced PBLs were co-cultured with various tumor cell lines.

Lau 149 mel = test: IFN-γ release, co-culture with Lau 149 mel; assay type: cell-based; details: co-cultured with Lau 149 mel
Text: PBLs that were untransduced (UT) or transduced with a vector comprising SEQ ID NO: 27 (SSX-2 TCR), SEQ ID NO: 29 (codon-optimized SSX-2 TCR), or SEQ ID NO: 30 (codon-optimized SSX-2 TCR including mouse constant region) were co-cultured with various tumor cell lines. Tables 5 and 6 show the resulting interferon-γ levels (pg/ml) measured with respect to PBL from two different donors.

[4] = IFN-γ release, transduced PBL without target cells (medium / T cell alone); assay type: cell-based, human; details: for IFN-γ: MEDIUM, no target cells; for interferon-γ levels: T cell alone
Text: as §1

H82 = test: IFN-γ release, co-culture with H82; assay type: cell-based; details: co-cultured with H82
Text: as §2

SKMEL 23 = test: IFN-γ release, co-culture with SKMEL 23; assay type: cell-based; details: co-cultured with SKMEL 23
Text: as §2

293-A2 SSX2 = test: IFN-γ release, co-culture with 293-A2 SSX2; assay type: cell-based; details: co-cultured with 293-A2 SSX2
Text: as §1

888 = test: IFN-γ release, co-culture with 888; assay type: cell-based; details: co-cultured with 888
Text: as §2

SSX-2 = test: Tetramer binding of transduced PBL; details: human donor-derived PBL; CD4 and CD8 cells
U251 Glioma = test: IFN-γ release, co-culture with U251 glioma; assay type: cell-based; details: co-cultured with U251 (Glioma)
Text: as §1

B1: SSX2-TCR-WT: HLA-A2 restricted anti-SSX-2 TCR alpha and beta chains encoded by SEQ ID NO: 27, tested as transduced human PBLs (protein)
chain: MSLSSLLKVVTASLWLGPGIAQKITQTQPGMFVQEKEAVTLDCTYDTSDPSYGLFWYKQPSSGEMIFLIYQGSYDQQNATEGRYSLNFQKARKSANLVISASQLGDSAMYFCAMTSGFGNEKLTFGTGTRLTIIPNIQNPDPAVYQLRDSKSSDKSVCLFTDFDSQTNVSQSKDSDVYITDKTVLDMRSMDFKSNSAVAWSNKSDFACANAFNNSIIPEDTFFPSPESSCDVKLVEKSFETDTNLNFQNLSVIGFRILLLKVAGFNLLMTLRLWSSRAKRSGSGATNFSLLKQAGDVEENPGPMGPGLLHWMALCLLGTGHGDAMVIQNPRYQVTQFGKPVTLSCSQTLNHNVMYWYQQKSSQAPKLLFHYYDKDFNNEADTPDNFQSRRPNTSFCFLDIRSPGLGDAAMYLCATSRGQGGQPQHFGDGTRLSILEDLNKVFPPEVAVFEPSEAEISHTQKATLVCLATGFFPDHVELSWWVNGKEVHSGVSTDPQPLKEQPALNDSRYCLSSRLRVSATFWQNPRNHFRCQVQFYGLSENDEWTQDRAKPVTQIVSAEAWGRADCGFTSVSYQQGVLSATILYEILLGKATLYAVLVSALVLMAMVKRKDF
- proliferation ([3H]-thymidine incorporation) [1]: proliferate in response to co-culture with SSX2+/HLA-A2+ target cells
- IFN-γ (COS-A2 SSX2; Table 3): 36070 pg/mL
- IFN-γ (COS-A2 SSX2; Table 4): 56820 pg/mL
- IFN-γ (624 mel; Table 3): 26515 pg/mL
- IFN-γ (624 mel; Table 4): 21730 pg/mL
- activation marker CD137 (4-1BB) (COS-A2-SSX2 cells): upregulated
- IFN-γ (HEPG2; Table 3): 25 pg/mL
- IFN-γ (HEPG2; Table 4): 61 pg/mL
- IFN-γ (938-A2 mel): 19320 pg/mL
- recognition of SSX-2: 41-49 peptide (IFN-γ) ([2]; FIG. 10): recognize SSX-2: 41-49 peptide
- lowest SSX-2: 41-49 peptide concentration recognized (IFN-γ) ([2]; T2 cells from two human donors pulsed with varying peptide concentrations, FIGS. 1A, 1B): ≤ 0.01 ng/mL
- IFN-γ (MCF7; Table 3): 0 pg/mL
- IFN-γ (MCF7; Table 4): 3 pg/mL
- IFN-γ (T331A mel; Table 3): 0 pg/mL
- IFN-γ (T331A mel; Table 4): 42 pg/mL
- interferon-γ levels (T331A mel; Table 5 donor): 30 pg/mL
- interferon-γ levels (T331A mel; Table 6 donor): 58 pg/mL
- IFN-γ (OVCAR3; Table 3): 0 pg/mL
- IFN-γ (OVCAR3; Table 4): 21 pg/mL
- IFN-γ (SKOV3 Ovarian; Table 3): 663 pg/mL
- IFN-γ (SKOV3 Ovarian; Table 4): 610 pg/mL
- IFN-γ (T567A; Table 3): 10280 pg/mL
- IFN-γ (T567A; Table 4): 13245 pg/mL
- IFN-γ (938 mel; Table 3): 0 pg/mL
- IFN-γ (938 mel; Table 4): 0 pg/mL
- interferon-γ levels (938 mel; Table 5 donor): 1239 pg/mL
- interferon-γ levels (938 mel; Table 6 donor): 1451 pg/mL
- recognition of tumor cell lines (IFN-γ) [3]: recognized naturally processed and presented SSX-2 protein in both melanoma (624, and 1300) and glioblastoma cell lines (U251)
- interferon-γ levels (Lau 149 mel; Table 5 donor): 285 pg/mL
- interferon-γ levels (Lau 149 mel; Table 6 donor): 125 pg/mL
- IFN-γ ([4]; Table 3): 0 pg/mL
- IFN-γ ([4]; Table 4): 0 pg/mL
- interferon-γ levels ([4]; Table 5 donor): 165 pg/mL
- interferon-γ levels ([4]; Table 6 donor): 322 pg/mL
- IFN-γ (H82; Table 3): 141 pg/mL
- IFN-γ (H82; Table 4): 100 pg/mL
- IFN-γ (SKMEL 23; Table 3): 0 pg/mL
- IFN-γ (SKMEL 23; Table 4): 0 pg/mL
- IFN-γ (293-A2 SSX2; Table 3): 33913 pg/mL
- IFN-γ (293-A2 SSX2; Table 4): 20595 pg/mL
- IFN-γ (888; Table 3): 126 pg/mL
- IFN-γ (888; Table 4): 143 pg/mL
- tetramer binding (SSX-2): tetramer binding
- IFN-γ (U251 Glioma; Table 3): 9770 pg/mL
- IFN-γ (U251 Glioma; Table 4): 12025 pg/mL
